The text below walks through data of article PMC3545708.

The Kd is the free concentration of one partner at which half of the binding sites on the other are occupied at equilibrium, for simple one-to-one binding. A lower Kd goes with higher affinity.

For this assay, the target named is isolated HC fragment of BoNT/A (receptor-binding domain), wild type (Clostridium botulinum). Kind of assay: ITC. In general terms: In ITC the heat of successive injections is recorded.

“full-length NTNHA-A1 (non-toxic non-hemagglutinin protein) (from UniProt Q45914 1-1193) (natural protein)” showed a Kd of 48.3 nM.
